From the RNAGym collection of RNA variant scans (doi:10.7554/elife.90254)

B1: OR4K15 (parent)
chain: GUUAACGGUCAUAGGCCAUGGAAACUAGGAGCACCAUUUCGCUGCCAGUGAAGAAAUGAACAAAGAAAAUCUGGGCCAGGCAGGCAUCAAAAGAAAUAGUCUUGCGCUCAACCAGAAAGUCUGUAAUCAUUUUAAGGGUA

Variants of: B1
Experiment: self-cleavage, relative activity (ratio to wild type); higher = more cleavage; in vitro, sequencing; the parent is a self-cleaving ribozyme

Variant	self-cleavage
GUUAACGGUCAUAGGCCAUGGAAACUAGGAGCACCACUUCGCUGCCAGUGAAGAAAUGAACAAAGAAAAUCUGGACCAGGCAGGCAUCAAAAGAAAUAGUCUUGCGCUCAACCAGAAAGUCUGUAAUCAUUUUAAGGGUA	0.08
GUUAACGGUCAUAGGCCAUGGAAACUAGGAGCACCACUUCGCUGCCAGUGAAGAAAUGAACAAAGAAAAUCUGGGCCAGGCAAGCAUCAAAAGAAAUAGUCUUGCGCUCAACCAGAAAGUCUGUAAUCAUUUUAAGGGUA	2.15
GUUAACGGUCAUAGGCCAUGGAAACUAGGAGCACCACUUCGCUGCCAAUGAAGAAAUGAACAAAGAAAAUCUGGGCCAGGCAGGCAUCAAAAGAAAUAGUCUUGCGCUCAACCAGAAAGUCUGUAAUCAUUUUAAGGGUA	1.59
GUUAACGGUCAUAGGCCAUGGAAACUAGGAGCACCACUUCGCUGCCAGUGAAGAAAUGAACAAAGAAAAUCUGGGCCAGGCAGGCAUCAAAAGAAAUAGUCUUGCGCUCAACCAGAAAGUCUGUAAUCAUUUUAAAGGUA	2.23
GUUAACGGUCAUAGGCCAUGGAAACUAGGAGCACCACUUCGCUGCCAGUGAAGAAAUGAACAAAGAAAAUCUGUGCCAGGCAGGCAUCAAAAGAAAUAGUCUUGCGCUCAACCAGAAAGUCUGUAAUCAUUUUAAGGGUA	0.2
GUUAACGGUCAUAGGCCAUGGAAACUAGGAGCACCACUUCGCUGCCAGUGAAGAAAUGAACAAAGAAAAUCUGGGCCAGGCAGGCAUCAAAAGAAAUAGUCUUACGCUCAACCAGAAAGUCUGUAAUCAUUUUAAGGGUA	0.03
GUUAACGGUCAUAGGCCAUGGAAACUAGGAGCACCACUUCGCUGCCAGUGAAGAAAUGAACAAAGAAAAUCUGGGCCAGGCAGGCAUCAAAAGAAAUAGUCUUGCGCUAAACCAGAAAGUCUGUAAUCAUUUUAAGGGUA	0.34
GUUAACGGUCAUAGGCCAUGGAAACUAGGAGCACCACUUCGCUGCCAGUGAAGAAAUGAACAAAGAAAAUCUGGGCCAGGCAGGCAUCAAAAGAAAUAGUCUUGCACUCAACCAGAAAGUCUGUAAUCAUUUUAAGGGUA	0.01
GUUAACGGUCAUAGGCCAUGGAAACUAGGAGCACCACUUCGCUGCCAGUGAAGAAAUGAACAAAGAAAAUCUGGGCCAGUCAGGCAUCAAAAGAAAUAGUCUUGCGCUCAACCAGAAAGUCUGUAAUCAUUUUAAGGGUA	0.11
GUUAACGGUCAUAGGCCAUGGAAACUAGGAGCACCACUUCGCUGCCAGUGAAGAAAUGAACAAAGAAAAUCUGGGCUAGGCAGGCAUCAAAAGAAAUAGUCUUGCGCUCAACCAGAAAGUCUGUAAUCAUUUUAAGGGUA	2.11
GUUAACGGUCAUAGGCCAUGGAAACUAGGAGCACCACUUCGCUGCCAGUGAAGAAAUGAACAAAGAAAAUCUGGGCCAGGCAGGCAUCAAAAGAAAUAGUCUUGCGCUCAACCAGAAAGUCUGUAAUAAUUUUAAGGGUA	0.17
GUUAACGGUCAUAGGCCAUGGAAACUAGGAGCACCACUCCGCUGCCAGUGAAGAAAUGAACAAAGAAAAUCUGGGCCAGGCAGGCAUCAAAAGAAAUAGUCUUGCGCUCAACCAGAAAGUCUGUAAUCAUUUUAAGGGUA	1.72
GUUAACGGUCAUAGGCCAUGGAAACUAGGAGCACCACUUCGCUGCCAGUGAAGAAAUGAACAAAGAAAAUCUAGGCCAGGCAGGCAUCAAAAGAAAUAGUCUUGCGCUCAACCAGAAAGUCUGUAAUCAUUUUAAGGGUA	0.19
GUUAACGGUCAUAGGCCAUGGAAACUAGGAGCACCACUUCGCUGCCAGUGAAGAAAUGAACAAAGAAAAUCUGGGCCAGGCAGACAUCAAAAGAAAUAGUCUUGCGCUCAACCAGAAAGUCUGUAAUCAUUUUAAGGGUA	1.7
GUUAACGGUCAUAGGCCAUGGAAACUAGGAGCACCACUUCGCUGCCAGUGAAGAAAUGAACAAAGAAAAUCUGGGCCAGGUAGGCAUCAAAAGAAAUAGUCUUGCGCUCAACCAGAAAGUCUGUAAUCAUUUUAAGGGUA	0.49
GUUAACGGUCAUAGGCCAUGGAAACUAGGAGCACCACUUCGCUGCCAGUGAAGAAAUGAACAAAGAAAAUCUGGGCCAGGCAGGCAUCAAAAGAAAUAGUCUUGCGCUCAACCAUAAAGUCUGUAAUCAUUUUAAGGGUA	0.37
GUUAACGGUCAUAGGCCAUGGAAACUAGGAGCACCACCUCGCUGCCAGUGAAGAAAUGAACAAAGAAAAUCUGGGCCAGGCAGGCAUCAAAAGAAAUAGUCUUGCGCUCAACCAGAAAGUCUGUAAUCAUUUUAAGGGUA	1.51
GUUAACGGUCAUAGGCCAUGGAAACUAGGAGCACCACUUCGGUGCCAGUGAAGAAAUGAACAAAGAAAAUCUGGGCCAGGCAGGCAUCAAAAGAAAUAGUCUUGCGCUCAACCAGAAAGUCUGUAAUCAUUUUAAGGGUA	1.69
GUUAACGGUCAUAGGCCAUGGAAACUAGGAGCACCACUUCGCUACCAGUGAAGAAAUGAACAAAGAAAAUCUGGGCCAGGCAGGCAUCAAAAGAAAUAGUCUUGCGCUCAACCAGAAAGUCUGUAAUCAUUUUAAGGGUA	1.56
GUUAACGGUCAUAGGCCAUGGAAACUAGGAGCACCACUUCGCUGCCAGUGAAGAAAUAAACAAAGAAAAUCUGGGCCAGGCAGGCAUCAAAAGAAAUAGUCUUGCGCUCAACCAGAAAGUCUGUAAUCAUUUUAAGGGUA	1.14
GUUAACGGUCAUAGGCCAUGGAAACUAGGAGCACCACUUCGCUGCCAGUGAAGAAAUGAACAAAGAAAAUCUGGGCCAUGCAGGCAUCAAAAGAAAUAGUCUUGCGCUCAACCAGAAAGUCUGUAAUCAUUUUAAGGGUA	0.12
